From publication PMC12647017, “Discovery and optimization of a synthetic small protein domain targeting antibodies” (Frontiers in Bioengineering and Biotechnology, 2025) come the findings set out here.

A short description of data set [1]: Solubility / precipitation observed during production, dialysis and purification. The format is physicochemical. Here is the method:
Therefore, after expression the soluble fractions were further centrifuged at 42,000 g for 20 min at 4 °C. As the samples were diluted (∼5 mg/mL in 25 mL lysis buffer), the soluble fractions were lyophilized and resuspended in 4 mL of water. The samples were dialyzed (Membranes Spectra Pre-Treated 1 kDa, Carl Roth) to Binding buffer without imidazole (20 mM Sodium Phosphate, 500 mM Sodium Chloride pH 7.4) for 24 h at 16 °C. The samples were quantified by […] (typically ∼6 mg/mL), this solution was diluted 1:2 in Binding buffer (20 mM Sodium Phosphate, 500 mM Sodium Chloride, 20 mM imidazole pH 7.4) and purified in a gravitational flow with 6 mL of resin (IMAC Sepharose 6 Fast Flow (Ni^2+), Cytiva) packed in a PD-10 column. The column was prepared using the indications of the manufacturer. The binding of the protein to the column was maximized by an incubation for 1 h at room temperature in agitation at 40rpm. The resin was washed 4 x column volumes (CV) with binding buffer. The elution as achieved by incubation for 15min with elution buffers. We used a gradient with 3 x CV elution buffer 1 (binding buffer with 100 mM imidazole) and 3 x CV elution buffer 2 (binding buffer with 200 mM imidazole).
The most enriched elutions in WW domains (60%–70% purity) were combined and dialysed against PBS1x (10 mM Na2HPO4, 1.8 mM KH2PO4, 2.7 mM KCl, 137 mM NaCl pH 7.4) with routine changes of buffer up to 48 h at 16 °C. Following the samples were concentrated with a Amicon-Ultra15 3 kDa MWCO (Millipore) with centrifugation conditions 4,900 g, 30 min, 4 °C. The final samples were quantified by BCA assay.
Size Exclusion Chromatography (SEC). The samples were further purified by SEC to achieve 90% purity in a AKTA system (Cytiva). The column Superdex 75 Increase 10/300 GL (29148721, Cytiva) was washed with water and equilibrated 2CV in PBS1x, as described by the manufacturer. As calibrants we prepare a mixture: 2 mg/mL of Bovine Serum Albumin (66 kDa, BP9702-100, FisherScientific), Ovalbumin (42 kDa, A5503-1G, Sigma), Chicken Lysozyme ([…], 62,971–10G-F, Fluka) and hPin1_WW chemically synthesized (5 kDa, produced in ([Dias et al., 2015])) in PBS 1x, this sample was filtered with 0.2 µm PES (514–0073, VWR) and analysed. The operation conditions: flow 0.5 mL/min, 0.05 CV in PBS1x and injection of 250 µL and run for 2 CV with PBS 1x at 16 °C. The same method was used for the WW domain samples. After purifications samples were quantified for total protein by BCA assay, as described previously and used for characterization.

The next data set concerns hIgG. The data set is described as follows: ELISA of soluble fractions of native and mutated WW domains against hIgG. The class given is binding. The following applies: human IgG, soluble fraction, ABTS. The protocol:
The soluble fraction of 100 mL cultures (100 μL) was used for ELISA against hIgG, as described in ([Dias et al., 2025]). Briefly, the target hIgG was immobilized (1 μg/well) in 0.1 M Sodium Bicarbonate pH 8.6 in Immuno Maxisorp ELISA plates (Thermo Fisher), overnight at 4 °C. In the next day, the unbound hIgG was removed, and the wells washed with PBS1x. To the wells was added the blocking solution – 5% (v/v) Soya Milk in PBS 1x and incubated for 1 h at room temperature. The wells were washed and incubated with 100 µL of soluble fraction (∼0.065 mg/mL total protein) at room temperature for 2 h.
The unbound WW domains were removed, and the wells were washed using 4 times PBS1x-0.05% Tween 20 and 1 time with PBS1x. For detection was used 1:1,000 anti-His-HRP conjugated antibody (MA1-21315-HRP, Invitrogen) in 1% (v/v) Soya Milk in PBS1x and incubated for 1 h at RT, after that the wells were washed with 5x PBS1x. The detection occurred with ABTS (2,2′-azino-bis(3-ethylbenzothiazoline-6-sulfonic acid) ready solution (11684302001, Roche), which was incubated in the dark for 1 h at 37 °C. Finally, the results were analysed in a microplate reader (Tecan) with appropriate filter at Abs405nm.
Figure S6 – Production and signal characterization of mutated versions. A – Tris-Tricine gels after cell lysis of the WW prototype sequence (WWp, band at ~8KDa), mutated WWp5_4 scaffold (WWp5_4_M2, band at ~8 kDa) and mutated E6 (E6_M2, band at ~ 12kDa). Samples were normalized 90µg total protein/lane. M - Precision Plus Protein™ Dual Xtra Prestained, Biorad; SF – soluble fraction; ISF – insoluble fraction. B1, B2, and B3 indicate production batchs in 1L culture, except for WWp B1 – 100 mL, WWp_5_4 B2 – 900 mL. Stained with Simplyblue. […] The detection of the clones was made with anti-His conjugated antibody with HRP and detected with ABTS as substrate.
Figure S7 – Comparison between ELISA signal of E6 versus E6_M2. […] The expression levels were detected by direct coating of the microplate well with the soluble fraction of the extract. […] All were detected with ABTS as substrate.

The target of data set [2] is human IgG conjugated with fluorescein isothiocyanate (IgG-FITC) (human). Briefly: MST; IgG-FITC fixed at 50 nM; 16 serial dilutions of E6 from 23.5 uM to 0.7 nM; 50 mM MOPS, 0.05% Tween-20, pH 7; 25 C; fit models Kd and Hill.
The target is the same in data set [3]. The data set is described as follows: MST; hIgG-FITC (Sigma F9636) fixed at 25 nM; 16 samples of E6_M2_T2 from 695 nM in 1:2 serial dilution; PBS, 0.05% Tween-20, pH 7.4; 25 C; fit models Kd and Hill.

Consider “C S GK LPPGW E E R KTRRFKLG R TYYYNHHILSKTS Q W EH PR G SS [Clone E6_M2, E6 with mutated framework and N-terminal Cys]”, for which the “solubility compared with native counterpart E6” value in data set [1] (IMAC purification without chaotropic agents) is listed as “higher solubility than the native counterpart”. Moreover, the “precipitation / solubility after dialysis” value in data set [1] (dialysis against PBS1x pH 7.4, up to 48 h at 16 °C) is on record as “some precipitation”. Further, in the data set on hIgG (E6 detected with anti-HA-HRP, E6_M2 and Rosetta extract with anti-His-HRP), the “binding signal relative to negative control (E. coli Rosetta extract)” value turned out to be 2 times. Besides, in the data set with hIgG (anti-His-HRP, Abs405nm), the “binding signal relative to scaffold framework (WWp5_4)” value is listed as 2 times.
As to SMGLPPGWDEYKTRRFKLGKTYYYNHHILSKTSTWTDPRMSS (designed binder) [E6 (lead ligand, WWp5_4 scaffold), without tag], in data set [2], the EC50 (commonly the midpoint of the concentration-response curve) was determined as 146 nM and the Kd (in general, the concentration at which binding is half-saturated) was 133 nM.

B1: E6_M2_T2 (head-to-tail dimer of E6_M2) (designed binder)
chain: CSGKLPPGWEERKTRRFKLGRTYYYNHHILSKTSQWEHPRGSSSGKLPPGWEERKTRRFKLGRTYYYNHHILSKTSQWEHPRGSS
In data set [3], B1 gave an EC50 of 157 nM and a Kd of 62 nM.
